Here are results for two molecules from publication PMC3648612 (Nature structural & molecular biology, 2013).

In assay [1] the target is T1, Med12 (Srb8), S. cerevisiae (S. cerevisiae, UniProt P25648 1-1427).
T1 sequence: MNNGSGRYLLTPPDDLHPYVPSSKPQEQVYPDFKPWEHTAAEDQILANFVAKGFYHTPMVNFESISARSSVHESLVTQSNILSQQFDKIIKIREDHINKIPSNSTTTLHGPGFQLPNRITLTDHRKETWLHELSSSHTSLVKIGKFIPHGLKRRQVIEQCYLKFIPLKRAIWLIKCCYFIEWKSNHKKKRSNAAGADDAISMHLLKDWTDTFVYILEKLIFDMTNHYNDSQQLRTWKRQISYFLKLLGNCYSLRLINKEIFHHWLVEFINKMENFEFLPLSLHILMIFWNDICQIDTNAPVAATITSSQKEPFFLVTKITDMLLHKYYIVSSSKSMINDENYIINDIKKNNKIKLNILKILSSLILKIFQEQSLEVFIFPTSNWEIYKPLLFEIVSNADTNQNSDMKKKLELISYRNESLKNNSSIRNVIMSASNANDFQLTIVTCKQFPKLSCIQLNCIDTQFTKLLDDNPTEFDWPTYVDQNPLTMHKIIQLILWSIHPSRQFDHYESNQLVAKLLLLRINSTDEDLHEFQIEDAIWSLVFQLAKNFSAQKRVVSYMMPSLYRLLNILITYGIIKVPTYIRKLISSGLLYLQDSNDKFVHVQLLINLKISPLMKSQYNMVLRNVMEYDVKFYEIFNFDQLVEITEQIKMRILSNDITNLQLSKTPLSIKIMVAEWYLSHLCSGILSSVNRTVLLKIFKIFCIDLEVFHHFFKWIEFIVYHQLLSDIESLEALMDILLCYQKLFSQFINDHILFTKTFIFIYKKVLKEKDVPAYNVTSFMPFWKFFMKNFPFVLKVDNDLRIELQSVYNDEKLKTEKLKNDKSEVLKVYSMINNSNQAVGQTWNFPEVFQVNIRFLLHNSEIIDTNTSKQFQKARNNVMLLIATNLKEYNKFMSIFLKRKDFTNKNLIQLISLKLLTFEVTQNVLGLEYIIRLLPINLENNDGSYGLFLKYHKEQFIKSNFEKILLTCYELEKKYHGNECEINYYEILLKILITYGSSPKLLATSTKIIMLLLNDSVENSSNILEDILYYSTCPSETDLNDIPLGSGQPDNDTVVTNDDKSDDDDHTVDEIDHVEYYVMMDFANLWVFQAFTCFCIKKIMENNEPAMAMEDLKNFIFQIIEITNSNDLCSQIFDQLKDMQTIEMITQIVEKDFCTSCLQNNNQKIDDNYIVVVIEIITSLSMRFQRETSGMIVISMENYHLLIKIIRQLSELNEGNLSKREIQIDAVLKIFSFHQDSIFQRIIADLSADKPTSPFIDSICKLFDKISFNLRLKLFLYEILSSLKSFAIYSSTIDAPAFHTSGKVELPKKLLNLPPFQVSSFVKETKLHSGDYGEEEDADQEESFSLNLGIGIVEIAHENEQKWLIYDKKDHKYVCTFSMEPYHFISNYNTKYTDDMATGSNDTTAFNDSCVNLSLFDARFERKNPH
The assay can be described thus: cryo-EM structure.

In assay [2] the target is T2, Cdk8 (Srb10) with a C-terminal TAP tag, S. cerevisiae (S. cerevisiae, UniProt P39073 1-555).
T2 sequence: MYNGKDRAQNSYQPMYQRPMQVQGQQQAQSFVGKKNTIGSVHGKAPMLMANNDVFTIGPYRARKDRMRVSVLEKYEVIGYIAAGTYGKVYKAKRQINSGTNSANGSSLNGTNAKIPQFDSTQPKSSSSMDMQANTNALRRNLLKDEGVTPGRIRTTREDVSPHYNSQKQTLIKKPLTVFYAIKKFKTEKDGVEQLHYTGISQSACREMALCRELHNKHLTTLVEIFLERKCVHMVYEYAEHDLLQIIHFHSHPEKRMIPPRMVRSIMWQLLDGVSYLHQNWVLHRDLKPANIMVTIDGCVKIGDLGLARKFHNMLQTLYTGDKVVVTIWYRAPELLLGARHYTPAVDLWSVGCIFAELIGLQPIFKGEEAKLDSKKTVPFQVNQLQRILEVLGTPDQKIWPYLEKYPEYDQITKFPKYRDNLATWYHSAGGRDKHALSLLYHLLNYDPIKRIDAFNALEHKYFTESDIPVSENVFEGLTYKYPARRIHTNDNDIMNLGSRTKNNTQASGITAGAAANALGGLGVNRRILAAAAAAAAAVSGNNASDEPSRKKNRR
The assay can be described thus: tandem affinity purification.

B1: Med13 (Srb9), S. cerevisiae (natural protein)
chain: MSSDASTYRLEDVLSSFYRVEKIKKINYHQYISKAQNDQWSIQMEFMLRKQDPKTLVALLSRDLWCFSINDDPVPTPPAIEHKPVSPDKIGTFTADYSKPNLPPHYALFLKALRRKIYINLALGSHNKLIQFGNACISLSGVPNYLVQLEPHLFVNGDLTVSLCAKNMGLVPMKEENLEESFLSKHALYLAPSGIRMHLAPASKQGYLITPPKHTELLLTTLSVSHGINLQNKKNLKWVAVVPDLGHLNGHTPTIASYLTPLLEAKKLVWPLHLIFAQPVADIENSTSGDPSEFHCLQDALDAIDDFIQLKQTAAYRTPGSSGVLSSNIAGTNPLSSDGAYTEQFQHYKNNSISSQPASYHSVQETNKISPKDFSPNFTGIDKLMLSPSDQFAPAFLNTPNNNINENELFNDRKQTTVSNDLENSPLKTELEANGRSLEKVNNSVSKTGSVDTLHNKEGTLEQREQNENLPSDKSDSMVDKELFGEDEDEDLFGDSNKSNSTNESNKSISDEITEDMFEMSDEEENNNNKSINKNNKEMHTDLGKDIPFFPSSEKPNIRTMSGTTKRLNGKRKYLDIPIDEMTLPTSPLYMDPGAPLPVETPRDRRKSVFAPLNFNPIIENNVDNKYKSGGKFSFSPLQKEEALNFDISMADLSSSEEEEDEEENGSSDEDLKSLNVRDDMKPSDNISTNTNIHEPQYINYSSIPSLQDSIIKQENFNSVNDANITSNKEGFNSIWKIPQNDIPQTESPLKTVDSSIQPIESNIKMTLEDNNVTSNPSEFTPNMVNSEISNLPKDKSGIPEFTPADPNLSFESSSSLPFLLRHMPLASIPDIFITPTPVVTISEKEQDILDLIAEQVVTDYNILGNLGIPKIAYRGVKDCQEGLITTTMLQLFSTFDRLNGNDTISKFYNMKQPYVFVKKHHELIKVKHDSQPFIKFLNFRPPNGIKNFKSLLLSSSFKEDCLSFAPTLSQTYINQELGFCELLKLTNEDPPGLMYLKAFDKNKLLLLAAQIVSYCSNNKNSIKNVPPILIILPLDNATLTELVDKANIFQVIKNEVCAKMPNIELYLKVIPMDFIRNVLVTVDQYVNVAISIYNMLPPKSVKFTHIAHTLPEKVNFRTMQQQQMQQQQQQQQQQQNNSTGSSSIIYYDSYIHLAYSRSVDKEWVFAALSDSYGQGSMTKTWYVGNSRGKFDDACNQIWNIALNLASKKFGKICLILTRLNGILPDDELMNWRRLSGRNIHLAVVCVDDNSKISFIDEDKLYPSFKPIYKDTRFGGRMDMTRLYDYEIRDIDQDIHGIVFQHPFPLAHSQHRCAIRSGALIKFKKCDGDTVWDKFAVNLLNCPHSDSTQLLETILEEFRNLAALNVWYGLSDGEDGHIPWHILAVKKMMNTLVHTRVKIANTSAATVHTATSSSIILSDK
Turning to B1, in assay [1], the binding result was “binds”.

B2: CycC (Srb11), S. cerevisiae (natural protein)
chain: MSGSFWTSTQRHHWQYTKASLAKERQKLWLLECQLFPQGLNIVMDSKQNGIEQSITKNIPITHRDLHYDKDYNLRIYCYFLIMKLGRRLNIRQYALATAHIYLSRFLIKASVREINLYMLVTTCVYLACKVEECPQYIRTLVSEARTLWPEFIPPDPTKVTEFEFYLLEELESYLIVHHPYQSLKQIVQVLKQPPFQITLSSDDLQNCWSLINDSYINDVHLLYPPHIIAVACLFITISIHGKPTKGSSLASAASEAIRDPKNSSSPVQIAFNRFMAESLVDLEEVMDTIQEQITLYDHWDKYHEQWIKFLLHTLYLRPASAI
For the molecule B2, the binding result in assay [2] and in assay [1] was “binds” in each case.
